Experimental data from PMC2888438.

Target: TRIM25 (UniProt Q14258)
Test: co-immunoprecipitation, Western blot
Conditions: reference: wild type 2CARD; sites S8

binding against the reference: stronger
Substance: RIG-I 2CARD region (CARD1 and CARD2) (from UniProt O95786) S8A
